Reference: patent US20240261333A1, “NOVEL TARGETS FOR ENHANCING ANTI-TUMOR IMMUNITY” (THE BROAD INSTITUTE, INC., priority 2021, published 2024)

Assays:
[1] = target: ABCD1 (human) (UniProt P33897); test: IgG control IP from lysate of C-FLAG B3GNT2 cells, mass spectrometry
[2] = target: AIFM1 (human) (UniProt O95831); test: as above
[3] = target: ATAD3A (human) (UniProt Q9NVI7); test: as above
[4] = target: DNAJA3 (human) (UniProt Q96EY1); test: as above
[5] = target: EEF2 (human) (UniProt P13639); test: as above
[6] = target: ELOC (human) (UniProt Q15369); test: as above
ELOC (human), sequence (Q15369 whole entry): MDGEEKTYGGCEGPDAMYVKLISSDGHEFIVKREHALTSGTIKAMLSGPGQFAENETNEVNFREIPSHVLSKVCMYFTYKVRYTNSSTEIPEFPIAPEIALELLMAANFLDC

[7] = target: ERP44 (human) (UniProt Q9BS26); test: as above
[8] = target: H1FX (human) (UniProt Q92522); test: as above
[9] = target: HSP90AB1 (human) (UniProt P08238); test: as above
HSP90AB1 (human), sequence (P08238 2-724 limits assumed): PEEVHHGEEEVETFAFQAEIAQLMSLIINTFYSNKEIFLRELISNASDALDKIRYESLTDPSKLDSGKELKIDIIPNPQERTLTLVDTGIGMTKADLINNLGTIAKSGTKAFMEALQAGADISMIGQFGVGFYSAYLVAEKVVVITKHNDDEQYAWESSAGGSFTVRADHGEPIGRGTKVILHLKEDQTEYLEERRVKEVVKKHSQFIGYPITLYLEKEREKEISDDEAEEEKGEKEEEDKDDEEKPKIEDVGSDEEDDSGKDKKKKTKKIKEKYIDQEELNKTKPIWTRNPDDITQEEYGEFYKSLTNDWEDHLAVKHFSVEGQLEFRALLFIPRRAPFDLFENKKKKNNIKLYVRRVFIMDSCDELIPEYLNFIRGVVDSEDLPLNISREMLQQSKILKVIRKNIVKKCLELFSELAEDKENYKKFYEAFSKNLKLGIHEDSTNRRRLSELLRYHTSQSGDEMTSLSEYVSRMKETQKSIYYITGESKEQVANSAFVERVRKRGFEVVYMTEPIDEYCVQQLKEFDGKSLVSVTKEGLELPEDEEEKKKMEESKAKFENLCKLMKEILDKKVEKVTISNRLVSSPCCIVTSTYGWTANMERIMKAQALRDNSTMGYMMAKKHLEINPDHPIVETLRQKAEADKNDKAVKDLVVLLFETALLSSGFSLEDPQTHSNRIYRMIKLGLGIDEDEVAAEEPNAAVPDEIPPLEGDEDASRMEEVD

[10] = target: IFI16 (human) (UniProt Q16666); test: as above
[11] = target: IPO7 (human) (UniProt O95373); test: as above
[12] = target: KPNB1 (human) (UniProt Q14974); test: as above
KPNB1 (human), sequence (Q14974 whole entry): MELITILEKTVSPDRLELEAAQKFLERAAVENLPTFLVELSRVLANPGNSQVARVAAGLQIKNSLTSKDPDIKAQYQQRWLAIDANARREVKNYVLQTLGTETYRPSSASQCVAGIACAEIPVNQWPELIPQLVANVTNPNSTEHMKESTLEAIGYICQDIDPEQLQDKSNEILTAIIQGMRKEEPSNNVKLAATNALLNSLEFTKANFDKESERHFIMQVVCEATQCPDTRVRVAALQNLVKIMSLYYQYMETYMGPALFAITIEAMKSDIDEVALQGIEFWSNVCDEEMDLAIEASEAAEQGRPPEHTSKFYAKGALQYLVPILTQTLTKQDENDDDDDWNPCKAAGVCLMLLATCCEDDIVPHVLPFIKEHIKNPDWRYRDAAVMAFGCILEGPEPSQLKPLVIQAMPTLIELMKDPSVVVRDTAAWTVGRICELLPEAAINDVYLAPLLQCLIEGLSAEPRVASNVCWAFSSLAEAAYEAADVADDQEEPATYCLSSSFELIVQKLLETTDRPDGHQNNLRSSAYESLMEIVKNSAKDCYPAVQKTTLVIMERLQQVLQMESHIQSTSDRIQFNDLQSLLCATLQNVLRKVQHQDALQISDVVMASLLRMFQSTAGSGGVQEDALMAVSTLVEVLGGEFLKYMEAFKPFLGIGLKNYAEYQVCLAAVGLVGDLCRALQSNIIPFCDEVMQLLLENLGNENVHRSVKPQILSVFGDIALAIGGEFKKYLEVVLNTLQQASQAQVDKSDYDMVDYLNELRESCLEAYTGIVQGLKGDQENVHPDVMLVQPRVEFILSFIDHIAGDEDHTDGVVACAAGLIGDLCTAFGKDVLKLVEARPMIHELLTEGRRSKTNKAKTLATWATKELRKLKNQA

[13] = target: LARP4 (human) (UniProt Q71RC2); test: as above
[14] = target: LDHA (human) (UniProt P00338); test: as above
[15] = target: PSMB4 (human) (UniProt P28070); test: as above
[16] = target: PSMB6 (human) (UniProt P28072); test: as above
[17] = target: RCN1 (human) (UniProt Q15293); test: as above
[18] = target: RPL15 (human) (UniProt P61313); test: as above
[19] = target: RPL34 (human) (UniProt P49207); test: as above
[20] = target: RPS6 (human) (UniProt P62753); test: as above
[21] = target: RRBP1 (human) (UniProt Q9P2E9); test: as above
[22] = target: SFXN3 (human) (UniProt Q9BWM7); test: as above
[23] = target: SLC25A22 (human) (UniProt Q9H936); test: as above
[24] = target: STAU1 (human) (UniProt O95793); test: as above
[25] = target: TECR (human) (UniProt Q9NZ01); test: as above
TECR (human), sequence (Q9NZ01 whole entry): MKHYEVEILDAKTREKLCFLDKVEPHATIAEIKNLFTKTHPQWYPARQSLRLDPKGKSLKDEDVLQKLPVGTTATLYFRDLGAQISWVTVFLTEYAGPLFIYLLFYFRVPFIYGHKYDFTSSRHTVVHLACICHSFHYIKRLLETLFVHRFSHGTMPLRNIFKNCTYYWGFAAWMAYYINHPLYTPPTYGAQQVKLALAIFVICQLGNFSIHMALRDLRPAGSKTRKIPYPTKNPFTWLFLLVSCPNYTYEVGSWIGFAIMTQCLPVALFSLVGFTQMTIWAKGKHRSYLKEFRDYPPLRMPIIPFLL

[26] = target: TRAFD1 (human) (UniProt O14545); test: as above
TRAFD1 (human), sequence (O14545 2-582 limits assumed): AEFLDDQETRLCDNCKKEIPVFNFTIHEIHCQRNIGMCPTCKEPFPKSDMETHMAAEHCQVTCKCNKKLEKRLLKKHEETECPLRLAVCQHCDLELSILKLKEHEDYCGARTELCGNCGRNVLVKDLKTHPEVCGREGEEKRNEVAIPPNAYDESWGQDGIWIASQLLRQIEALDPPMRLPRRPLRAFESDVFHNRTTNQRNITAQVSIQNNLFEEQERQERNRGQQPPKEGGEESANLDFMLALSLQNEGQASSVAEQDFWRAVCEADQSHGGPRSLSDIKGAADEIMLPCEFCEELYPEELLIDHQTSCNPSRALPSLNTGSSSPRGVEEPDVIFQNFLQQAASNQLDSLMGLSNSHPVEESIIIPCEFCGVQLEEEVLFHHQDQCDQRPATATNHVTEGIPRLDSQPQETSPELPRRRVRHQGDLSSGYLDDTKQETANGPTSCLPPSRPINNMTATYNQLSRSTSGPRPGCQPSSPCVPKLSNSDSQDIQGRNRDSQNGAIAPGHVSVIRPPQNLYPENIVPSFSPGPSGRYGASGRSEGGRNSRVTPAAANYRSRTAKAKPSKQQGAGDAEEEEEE

[27] = target: TUBA1C (human) (UniProt Q9BQE3); test: as above
[28] = target: ACTR3 (UniProt P61158); test: co-IP with mouse IgG control, mass spectrometry; lysate of N-FLAG B3GNT2 cells
[29] = target: AHNAK (UniProt Q09666); test: as above
[30] = target: ATP5F1B (UniProt P06576); test: as above
[31] = target: ATXN2L (UniProt Q8WWM7); test: as above
[32] = target: HNRNPA1 (UniProt P09651); test: as above
HNRNPA1, sequence (P09651 2-372 limits assumed): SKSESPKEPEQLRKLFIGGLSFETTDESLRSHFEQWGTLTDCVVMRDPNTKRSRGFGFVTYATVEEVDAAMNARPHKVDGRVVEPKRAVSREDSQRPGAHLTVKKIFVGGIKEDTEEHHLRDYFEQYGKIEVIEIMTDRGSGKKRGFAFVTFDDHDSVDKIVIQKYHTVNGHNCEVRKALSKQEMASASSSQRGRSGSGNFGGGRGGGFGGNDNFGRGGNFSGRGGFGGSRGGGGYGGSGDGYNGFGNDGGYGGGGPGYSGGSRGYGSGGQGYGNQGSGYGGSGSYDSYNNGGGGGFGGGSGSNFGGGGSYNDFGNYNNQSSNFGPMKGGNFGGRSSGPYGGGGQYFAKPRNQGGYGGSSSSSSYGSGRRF

[33] = target: LYZ (UniProt P61626); test: as above
[34] = target: RPS11 (UniProt P62280); test: as above
[35] = target: S100A9 (UniProt P06702); test: as above
[36] = target: SPRR2E (UniProt P22531); test: as above
[37] = target: SSR1 (UniProt P43307); test: as above
SSR1, sequence (P43307 19-286 limits assumed): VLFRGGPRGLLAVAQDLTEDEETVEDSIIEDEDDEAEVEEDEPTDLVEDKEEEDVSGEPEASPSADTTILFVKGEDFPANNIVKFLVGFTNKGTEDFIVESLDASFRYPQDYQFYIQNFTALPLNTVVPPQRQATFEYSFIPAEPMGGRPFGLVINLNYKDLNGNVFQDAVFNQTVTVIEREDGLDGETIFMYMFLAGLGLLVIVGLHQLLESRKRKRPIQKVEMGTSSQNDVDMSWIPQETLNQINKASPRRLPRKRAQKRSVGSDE

[38] = target: TPI1 (UniProt P60174); test: as above
TPI1, sequence (P60174 2-249 limits assumed): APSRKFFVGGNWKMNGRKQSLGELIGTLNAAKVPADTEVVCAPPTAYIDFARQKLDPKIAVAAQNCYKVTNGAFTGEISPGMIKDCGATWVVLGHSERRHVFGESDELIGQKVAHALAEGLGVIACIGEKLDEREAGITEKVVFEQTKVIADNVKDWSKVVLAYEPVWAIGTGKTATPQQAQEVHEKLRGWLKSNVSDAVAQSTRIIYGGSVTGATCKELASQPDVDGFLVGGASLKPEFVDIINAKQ

[39] = target: YWHAZ (UniProt P63104); test: as above
YWHAZ, sequence (P63104 whole entry): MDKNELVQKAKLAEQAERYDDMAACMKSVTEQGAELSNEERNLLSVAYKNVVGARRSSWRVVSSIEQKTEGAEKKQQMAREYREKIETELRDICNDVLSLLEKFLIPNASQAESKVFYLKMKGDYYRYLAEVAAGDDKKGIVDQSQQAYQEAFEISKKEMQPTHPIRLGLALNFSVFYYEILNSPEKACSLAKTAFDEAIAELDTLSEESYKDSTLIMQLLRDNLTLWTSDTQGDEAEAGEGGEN

AIFM1 (human), sequence (O95831 55-613 limits assumed): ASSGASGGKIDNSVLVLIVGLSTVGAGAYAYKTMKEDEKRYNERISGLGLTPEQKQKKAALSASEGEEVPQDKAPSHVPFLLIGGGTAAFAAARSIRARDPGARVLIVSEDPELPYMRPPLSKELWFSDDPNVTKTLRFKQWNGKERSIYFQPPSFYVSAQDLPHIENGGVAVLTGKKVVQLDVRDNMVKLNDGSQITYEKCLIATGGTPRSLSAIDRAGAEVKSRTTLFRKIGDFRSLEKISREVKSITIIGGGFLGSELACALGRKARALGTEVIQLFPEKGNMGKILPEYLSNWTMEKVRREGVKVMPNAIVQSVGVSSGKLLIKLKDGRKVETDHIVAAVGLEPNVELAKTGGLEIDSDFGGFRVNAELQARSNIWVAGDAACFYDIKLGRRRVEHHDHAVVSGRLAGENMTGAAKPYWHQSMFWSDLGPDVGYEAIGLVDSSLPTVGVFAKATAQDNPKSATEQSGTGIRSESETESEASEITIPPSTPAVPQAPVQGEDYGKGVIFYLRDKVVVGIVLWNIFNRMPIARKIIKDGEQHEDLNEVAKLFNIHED
ATAD3A (human), sequence (Q9NVI7 2-586 limits assumed): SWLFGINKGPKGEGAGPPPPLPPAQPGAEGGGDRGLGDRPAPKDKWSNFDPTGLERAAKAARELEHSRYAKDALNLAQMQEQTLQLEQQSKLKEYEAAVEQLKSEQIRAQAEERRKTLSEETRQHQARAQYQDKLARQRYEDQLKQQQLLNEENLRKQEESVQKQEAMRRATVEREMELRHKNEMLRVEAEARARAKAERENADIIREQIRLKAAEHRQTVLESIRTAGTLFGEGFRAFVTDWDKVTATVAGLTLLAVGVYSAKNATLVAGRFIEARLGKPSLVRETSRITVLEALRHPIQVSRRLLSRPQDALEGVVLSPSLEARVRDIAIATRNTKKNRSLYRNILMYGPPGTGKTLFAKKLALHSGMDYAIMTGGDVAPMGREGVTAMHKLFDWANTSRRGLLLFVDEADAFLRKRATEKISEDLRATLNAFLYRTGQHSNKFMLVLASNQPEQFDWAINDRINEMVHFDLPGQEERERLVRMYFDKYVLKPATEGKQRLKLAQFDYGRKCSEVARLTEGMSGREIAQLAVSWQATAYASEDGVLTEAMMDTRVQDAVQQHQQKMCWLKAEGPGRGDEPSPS

IgG control (Millipore Sigma 12-371) (antibody)
co-IP mass spectrometry count [1]: 0
co-IP mass spectrometry count [2]: 0
co-IP mass spectrometry count [3]: 0
co-IP mass spectrometry count [4]: 0
co-IP mass spectrometry count [5]: 0
co-IP mass spectrometry count [6]: 0
co-IP mass spectrometry count [7]: 0
co-IP mass spectrometry count [8]: 0
co-IP mass spectrometry count [9]: 2
co-IP mass spectrometry count [10]: 0
co-IP mass spectrometry count [11]: 0
co-IP mass spectrometry count [12]: 0
co-IP mass spectrometry count [13]: 0
co-IP mass spectrometry count [14]: 0
co-IP mass spectrometry count [15]: 0
co-IP mass spectrometry count [16]: 0
co-IP mass spectrometry count [17]: 0
co-IP mass spectrometry count [18]: 2
co-IP mass spectrometry count [19]: 0
co-IP mass spectrometry count [20]: 2
co-IP mass spectrometry count [21]: 2
co-IP mass spectrometry count [22]: 0
co-IP mass spectrometry count [23]: 0
co-IP mass spectrometry count [24]: 0
co-IP mass spectrometry count [25]: 0
co-IP mass spectrometry count [26]: 0
co-IP mass spectrometry count [27]: 14
co-IP mass spectrometry count [28]: 3
co-IP mass spectrometry count [29]: 0
co-IP mass spectrometry count [30]: 0
co-IP mass spectrometry count [31]: 3
co-IP mass spectrometry count [32]: 4
co-IP mass spectrometry count [33]: 4
co-IP mass spectrometry count [34]: 8
co-IP mass spectrometry count [35]: 0
co-IP mass spectrometry count [36]: 3
co-IP mass spectrometry count [37]: 0
co-IP mass spectrometry count [38]: 2
co-IP mass spectrometry count [39]: 0
